Experimental data reported in patent publication US20110301335A1 (published 2011).
Where a chain is given by its changes, count along the chain named. Where two headings read alike, the source gives them in different places.

Key:
Assay in all cases: cell-based or functional assay
[1] = biological target: T1, human TNFR1 on MRC-5 cells (human, UniProt P19438 30-455)
T1 sequence (looked up): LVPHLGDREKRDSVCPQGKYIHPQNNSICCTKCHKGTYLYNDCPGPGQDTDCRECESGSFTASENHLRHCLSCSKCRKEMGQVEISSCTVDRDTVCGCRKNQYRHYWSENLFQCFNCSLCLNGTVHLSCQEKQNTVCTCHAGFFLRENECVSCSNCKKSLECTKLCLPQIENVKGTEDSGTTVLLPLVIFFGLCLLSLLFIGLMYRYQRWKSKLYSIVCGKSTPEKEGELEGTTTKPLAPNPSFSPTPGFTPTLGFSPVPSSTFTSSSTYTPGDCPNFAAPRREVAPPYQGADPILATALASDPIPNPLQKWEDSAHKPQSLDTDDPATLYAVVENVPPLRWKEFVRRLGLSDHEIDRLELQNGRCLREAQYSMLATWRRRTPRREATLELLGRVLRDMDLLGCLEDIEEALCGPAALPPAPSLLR

[2] = biological target: T1, human TNFR1 on MRC-5 cells; remark: listed apart in the source
[3] = biological target: T1, human TNFR1 on MRC-5 cells; remark: listed apart in the source
[4] = biological target: mouse TNFR1 on L929 cells (mouse) (UniProt P25118)
mouse TNFR1 on L929 cells (mouse), sequence (P25118 30-454): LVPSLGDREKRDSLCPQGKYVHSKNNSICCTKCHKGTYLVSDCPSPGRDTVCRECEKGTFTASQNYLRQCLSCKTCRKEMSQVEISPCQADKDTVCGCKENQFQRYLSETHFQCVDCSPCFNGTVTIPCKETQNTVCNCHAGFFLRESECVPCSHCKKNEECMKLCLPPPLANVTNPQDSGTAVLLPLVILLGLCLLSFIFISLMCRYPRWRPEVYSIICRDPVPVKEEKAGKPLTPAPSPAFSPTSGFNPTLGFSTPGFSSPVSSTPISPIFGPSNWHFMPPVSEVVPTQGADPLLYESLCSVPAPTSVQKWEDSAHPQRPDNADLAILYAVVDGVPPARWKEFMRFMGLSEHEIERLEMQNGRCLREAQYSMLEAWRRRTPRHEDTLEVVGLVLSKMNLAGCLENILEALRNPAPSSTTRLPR

B1: DMS0121 (bispecific antibody)
chain: EVQLLESGGGLVQPGGSLRLSCAASGFTFVKYSMGWVRQAPGKGLEWVSQISNTADRTYYAHSVKGRFTISRDNSKNTLYLQMNSLRAEDTAVYYCAIYTGRWVPFEYWGQGTLVTVSSASGGGGSGGGGSGGGGSDIQMTQSPSSLSASVGDRVTITCRASRPIGTTLSWYQQKPGKAPKLLILWNSRLQSGVPSRFSGSGSGTDFTLTISSLQPEDFATYYCAQAGTHPTTFGQGTKVEIKR
MRC5 (ND50 in nM) [1]: 1.8 nM

B2: DOM1h-574 (other)
VH: EVQLLESGGGLVQPGGSLRLSCAASGFTFVKYSMGWVRQAPGKGLEWVSQISNTGGHTYYADSVKGRFTISRDNSKNTLYLQMNSLRAEDTAVYYCAKYTGRWEPFDYWGQGTLVTVSS
MRC-5 EC50, fold of the EC50 of DOM1h-574-16 [2]: ~200 fold

B3: DOM1h-574-19 (other)
VH: B2 VH with V30G, G44D, G56D, K98I
MRC-5 EC50 [2]: 140 nM

B4: DMS0114 (bispecific antibody, V domains shown)
VH: B2 VH with G55A, G56D, H57R, D62H, K98I, E104R, D107E
MRC5 (ND50 in nM) [3]: 3.7 nM

B5: DMS0117 (bispecific antibody, V domains shown)
VH: B2 VH with N53D, G56D, H57R, T58R, A61D, K98I, E104K, D107E
MRC5 (ND50 in nM) [3]: 25.9 nM

B6: DMS0122 (bispecific antibody, V domains shown)
VH: B2 VH with N53D, G56D, H57R, T58R, A61D, K98I, E104A, D107E
MRC5 (ND50 in nM) [3]: 1.5 nM

B7: DOM1h-574-17 (other)
VH: B2 VH with L45P, G56D, K98I
MRC-5 EC50 [2]: 20 nM

B8: DOM1h-574-8 (other)
VH: B2 VH with L45P, K98I
MRC-5 EC50 [2]: 10 nM

B9: DOM1h-574-18 (other)
VH: B2 VH with V30G, G44D, G56D, H57R, K98I
MRC-5 EC50 [2]: 17 nM

B10: DOM1h-574-13 (other)
VH: B2 VH with G56D, H57R
MRC-5 EC50 [2]: 300 nM

B11: DOM1h-574-12 (other)
VH: B2 VH with G56D
MRC-5 EC50 [2]: 130 nM

B12: DOM1h-574-16 (other)
VH: B2 VH with L45P, G56D, H57R, K98I
MRC-5 EC50 [2]: 8 nM

B13: DOM1h-574-15 (other)
VH: B2 VH with G56D, K98I
MRC-5 EC50 [2]: 300 nM

B14: DOM1h-574-11 (other)
VH: B2 VH with Y108H
MRC-5 EC50 [2]: 800 nM

B15: DMS0124 (bispecific antibody)
chain: EVQLLESGGGLVQPGGSLRLSCAASGFTFVKYSMGWVRQAPGKGLEWVSQISNTADRTYYAHSVKGRFTISRDNSKNTLYLQMNSLRAEDTAVYYCAIYTGRWVPFEYWGQGTLVTVSSASGGGGSGGGGSGGGGSDIQMTQSPSSLSASVGDRVTITCRASQWIGSQLSWYQQKPGKAPKLLIMWRSSLQSGVPSRFSGSGSGTDFTLTISSLQPEDFATYYCAQGLMKPMTFGQGTKVEIKR
MRC5 (ND50 in nM) [1]: 1.9 nM

B16: DMS0168 (bispecific antibody)
chain: EVQLLESGGGLVQPGGSLRLSCAASGFTFVKYSMGWVRQAPGKGLEWVSQISNTADRTYYAHSVKGRFTISRDNSKNTLYLQMNSLRAEDTAVYYCAIYTGRWVPFEYWGQGTLVTVSSASTSGPSDIQMTQSPSSLSASVGDRVTITCRASQSIIKHLKWYQQKPGKAPKLLIYGASRLQSGVPSRFSGSGSGTDFTLTISSLQPEDFATYYCQQGARWPQTFGQGTKVEIKRAAAEQKLISEEDLN
ND50 (MRC5) [1]: 16 nM

B17: DMS0118 (bispecific antibody)
chain: EVQLLESGGGLVQPGGSLRLSCAASGFTFVKYSMGWVRQAPGKGLEWVSQISNTADRTYYAHSVKGRFTISRDNSKNTLYLQMNSLRAEDTAVYYCAIYTGRWVPFEYWGQGTLVTVSSASTSGPSDIQMTQSPSSLSASVGDRVTITCRASQWIGSQLSWYQQKPGKAPKLLIMWRSSLQSGVPSRFSGSGSGTDFTLTISSLQPEDFATYYCAQGLMKPMTFGQGTKVEIKR
MRC5 (ND50 in nM) [1]: 1.4 nM

B18: DMS0184 (bispecific antibody)
chain: EVQLLESGGGLVQPGGSLRLSCAASGFTFVKYSMGWVRQAPGKGPEWVSQISNTGDRTYYADSVKGRFTISRDNSKNTLYLQMNSLRAEDTAVYYCAIYTGRWEPFDYWGQGTLVTVSSASTSGPSDIQMTQSPSSLSASVGDRVTITCRASRPIGTTLSWYQQKPGKAPKLLIWFGSRLQSGVPSRFSGSGSGTDFTLTISSLQPEDFATYYCAQAGTHPTTFGQGTKVEIKR
ND50 (MRC5) [1]: 19 nM

B19: DMS0115 (bispecific antibody)
chain: B18 chain with P45L, G55A, D62H, E104V, D107E, W175L, F176W, G177N
MRC5 (ND50 in nM) [1]: 1.7 nM

B20: DMS0116 (bispecific antibody)
chain: B18 chain with P45L, G55A, D62H, E104V, D107E, T158M, W175L
MRC5 (ND50 in nM) [1]: 1.7 nM

B21: DMS0188 (bispecific antibody)
chain: EVQLLESGGGLVQPGGSLRLSCAASGFTFVKYSMGWVRQAPGKGPEWVSQISNTGDRTYYADSVKGRFTISRDNSKNTLYLQMNSLRAEDTAVYYCAIYTGRWEPFDYWGQGTLVTVSSASTSGPSDIQMTQSPSSLSASVGDRVTITCRASRPIGTMLSWYQQKPGKAPKLLILFGSRLQSGVPSRFSGSGSGTDFTLTISSLQPEDFATYYCAQAGTHPTTFGQGTKVEIKRAAAEQKLISEEDLN
ND50 (MRC5) [1]: 17 nM

B22: DMS0169 (bispecific antibody)
chain: B21 chain with P45L, G55A, D62H, E104V, D107E
ND50 (MRC5) [1]: 2.7 nM

B23: DMS0163 (bispecific antibody)
chain: B21 chain with F176A, G177F
ND50 (MRC5) [1]: 12 nM

B24: DMS0111 (bispecific antibody)
chain: EVQLLESGGGLVQPGGSLRLSCAASGFTFVKYSMGWVRQAPGKGLEWVSQISNTADRTYYAHSVKGRFTISRDNSKNTLYLQMNSLRAEDTAVYYCAIYTGRWVPFEYWGQGTLVTVSSASTDIQMTQSPSSLSASVGDRVTITCRASRPIGTTLSWYQQKPGKAPKLLILWNSRLQSGVPSRFSGSGSGTDFTLTISSLQPEDFATYYCAQAGTHPTTFGQGTKVEIKR
MRC5 (ND50 in nM) [1]: 1.6 nM

B25: DMS0112 (bispecific antibody)
chain: B24 chain with T154M, W172F, N173G
MRC5 (ND50 in nM) [1]: 1.3 nM

B26: DMS0133 (bispecific antibody)
chain: B24 chain with V30F, N53D, V104A
MRC5 ND50 [1]: 0.99 nM
L929 ND50 [4]: 4.2 nM

B27: DMS0132 (bispecific antibody)
chain: B24 chain with N53D
MRC5 ND50 [1]: 1.04 nM
L929 ND50 [4]: 6.8 nM

B28: DMS0134 (bispecific antibody)
chain: B24 chain with V30F, N53D
MRC5 ND50 [1]: 0.96 nM
L929 ND50 [4]: 6.52 nM

B29: DMS0135 (bispecific antibody)
chain: B24 chain with V30F, N53D, A61S
MRC5 ND50 [1]: 1.17 nM
L929 ND50 [4]: 5.9 nM

B30: DMS0182 (bispecific antibody)
chain: EVQLLESGGGLVQPGGSLRLSCAASGFTFVKYSMGWVRQAPGKGPEWVSQISNTGDRTYYADSVKGRFTISRDNSKNTLYLQMNSLRAEDTAVYYCAIYTGRWEPFDYWGQGTLVTVSSASTDIQMTQSPSSLSASVGDRVTITCRASRPIGTTLSWYQQKPGKAPKLLIWFGSRLQSGVPSRFSGSGSGTDFTLTISSLQPEDFATYYCAQAGTHPTTFGQGTKVEIKRAAAEQKLISEEDLN
ND50 (MRC5) [1]: 6 nM

B31: DMS0186 (bispecific antibody)
chain: B30 chain with T154M, W171L
ND50 (MRC5) [1]: 20 nM
